The text below walks through data of patent US20080254026A1.

Holding throughout (assay): cell-based or functional assay
In experiment [1] the target is human CD40 antigen expressed on the surface of cells (human) (UniProt P25942).
Experiment [2] concerns the target human CD40 on the surface of B cells within PBMC from normal human subjects (human) (UniProt P25942).
The target in experiment [3] is human CD40 antigen on the surface of B cells in human PBMC (human) (UniProt P25942).
For experiment [4], the target named is human CD20 on the surface of lymphoma cell lines (Ramos or Daudi) (human) (UniProt P11836).
The next experiment addresses CD20 (human) (UniProt P11836).
The target of experiment [5] is human CD40 on normal human B cells (PBMC or purified B cells) (human) (UniProt P25942).
human CD40 on normal human B cells (PBMC or purified B cells) (human), sequence (P25942 20-277): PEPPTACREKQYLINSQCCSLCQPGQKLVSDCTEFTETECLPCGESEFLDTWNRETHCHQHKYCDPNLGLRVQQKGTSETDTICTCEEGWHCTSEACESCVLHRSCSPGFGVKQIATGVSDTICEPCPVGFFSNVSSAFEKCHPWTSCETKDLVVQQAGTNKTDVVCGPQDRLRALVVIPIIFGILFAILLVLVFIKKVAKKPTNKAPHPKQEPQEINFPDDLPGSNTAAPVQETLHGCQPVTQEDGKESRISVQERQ

human CD40 antigen on the surface of B cells in human PBMC (human), sequence (P25942 20-277): as above
human CD40 on the surface of B cells within PBMC from normal human subjects (human), sequence (P25942 20-277): as above
CD40 ligand expressed on formaldehyde-fixed CHO cells, sequence (P29965 whole entry): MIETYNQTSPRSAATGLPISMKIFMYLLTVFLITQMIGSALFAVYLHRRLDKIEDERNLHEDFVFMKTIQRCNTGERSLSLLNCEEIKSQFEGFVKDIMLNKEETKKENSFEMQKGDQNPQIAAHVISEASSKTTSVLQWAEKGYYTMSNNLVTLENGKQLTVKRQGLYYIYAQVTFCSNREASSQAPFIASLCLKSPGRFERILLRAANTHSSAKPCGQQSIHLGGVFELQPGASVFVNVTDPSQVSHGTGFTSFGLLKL
CD40 ligand on formaldehyde-fixed CHO transfectant cells, sequence (P29965 whole entry): as above
CD20 (human), sequence (P11836 whole entry): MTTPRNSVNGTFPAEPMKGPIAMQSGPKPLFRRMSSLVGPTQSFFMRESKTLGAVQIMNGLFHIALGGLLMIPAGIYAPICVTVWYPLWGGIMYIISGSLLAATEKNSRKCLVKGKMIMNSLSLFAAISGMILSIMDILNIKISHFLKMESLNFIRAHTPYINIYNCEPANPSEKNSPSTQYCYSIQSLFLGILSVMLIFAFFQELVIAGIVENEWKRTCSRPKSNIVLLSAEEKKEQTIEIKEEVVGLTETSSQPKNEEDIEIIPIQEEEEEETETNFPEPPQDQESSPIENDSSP
human CD20 on the surface of lymphoma cell lines (Ramos or Daudi) (human), sequence (P11836 whole entry): as above
human CD40 antigen expressed on the surface of cells (human), sequence (P25942 20-277): as the sequence (P25942 20-277) above

For the substance “CD40 ligand expressed on formaldehyde-fixed CHO cells (from UniProt P29965 1-261)”, in experiment [1], the average stimulation index (SI), proliferation of total PBMC is 7.41. For the same substance, in experiment [2], the Average SI of PBMC; PBMC + CHO-CD40L, index (1) amounted to 11.9; the Average Stimulation index; PBMC + CHO-CD40L, S. index (1) amounted to 22; the PBMC + CHO-CD40L, CPM; Immoblize-004 was determined as 11700 CPM; the PBMC + CHO-CD40L, CPM; PBMC-012 came out at 6810 CPM. In experiment [2], the PBMC + CHO-CD40L, CPM; PBMC-025 Donor#1 worked out at 42300 CPM; the PBMC + CHO-CD40L, CPM; PBMC-025 Donor#2 was 15000 CPM; the PBMC + CHO-CD40L, CPM; PBMC-026 Donor#1 was 18300 CPM; the PBMC + CHO-CD40L, CPM; PBMC-026 Donor#2 worked out at 18100 CPM. Also, in experiment [2], the PBMC + CHO-CD40L, CPM; PBMC-027 Donor#1 was determined as 13000 CPM; the PBMC + CHO-CD40L, CPM; PBMC-027 Donor#2 amounted to 11900 CPM; the PBMC + CHO-CD40L, CPM; PBMC-028 Donor#1 is 22500 CPM; the PBMC + CHO-CD40L, CPM; PBMC-028 Donor#2 came to 54900 CPM. Also, in experiment [2], the PBMC + CHO-CD40L, CPM; PBMC-029 Donor#1 came out at 10100 CPM; the PBMC + CHO-CD40L, CPM; PBMC-029 Donor#2 came to 23100 CPM; the PBMC + CHO-CD40L, CPM; PBMC-030 Donor#1 was determined as 57200 CPM; the PBMC + CHO-CD40L, CPM; PBMC-030 Donor#2 stood at 53900 CPM. For the same substance, in experiment [2], the PBMC + CHO-CD40L, CPM; PBMC-032 Donor#1 was 15300 CPM; the PBMC + CHO-CD40L, S. index (1); Immoblize-004 stood at 13.7; the PBMC + CHO-CD40L, S. index (1); PBMC-012 amounted to 30.3; the PBMC + CHO-CD40L, index (1); PBMC-025 Donor#1 was 10.4. In experiment [2], the PBMC + CHO-CD40L, index (1); PBMC-025 Donor#2 was determined as 6.63; the PBMC + CHO-CD40L, index (1); PBMC-026 Donor#1 was 8.78; the PBMC + CHO-CD40L, index (1); PBMC-026 Donor#2 was 26.7; the PBMC + CHO-CD40L, index (1); PBMC-027 Donor#1 is 4.75. In experiment [2], the PBMC + CHO-CD40L, index (1); PBMC-027 Donor#2 turned out to be 8.89; the PBMC + CHO-CD40L, index (1); PBMC-028 Donor#1 was 5.26; the PBMC + CHO-CD40L, index (1); PBMC-028 Donor#2 turned out to be 25.6; the PBMC + CHO-CD40L, index (1); PBMC-029 Donor#1 amounted to 16.5. In experiment [2], the PBMC + CHO-CD40L, index (1); PBMC-029 Donor#2 was determined as 2.99; the PBMC + CHO-CD40L, index (1); PBMC-030 Donor#1 was 13.7; the PBMC + CHO-CD40L, index (1); PBMC-030 Donor#2 came out at 16.2; the PBMC + CHO-CD40L, index (1); PBMC-032 Donor#1 was 8.45. In experiment [3], the Average SI of PBMC; PBMC + CHO-CD40L, index (1) came to 5.09; the PBMC proliferation (3H-thymidine), CPM of PBMC + CHO-CD40L; PBMC-010 was 5280 CPM; the PBMC proliferation (3H-thymidine), CPM of PBMC + CHO-CD40L; PBMC-011 Donor#1 worked out at 8250 CPM; the PBMC proliferation (3H-thymidine), CPM of PBMC + CHO-CD40L; PBMC-011 Donor#2 is 11600 CPM. In experiment [3], the PBMC proliferation (3H-thymidine), CPM of PBMC + CHO-CD40L; PBMC-011 Donor#3 was 7960 CPM; the PBMC proliferation (3H-thymidine), CPM of PBMC + CHO-CD40L; PBMC-011 Donor#4 is 14300 CPM; the PBMC proliferation (3H-thymidine), CPM of PBMC + CHO-CD40L; PBMC-014 stood at 8790 CPM; the PBMC proliferation (3H-thymidine), CPM of PBMC + CHO-CD40L; PBMC-015 Donor#1 was found to be 12900 CPM. In addition, in experiment [3], the PBMC proliferation (3H-thymidine), CPM of PBMC + CHO-CD40L; PBMC-015 Donor#2 came out at 19100 CPM; the PBMC proliferation (3H-thymidine), CPM of PBMC + CHO-CD40L; PBMC-015 Donor#3 is 19800 CPM; the PBMC proliferation (3H-thymidine), CPM of PBMC + CHO-CD40L; PBMC-016 is 15800 CPM; the index (1) = (PBMC + CHO-CD40L)/PBMC; PBMC-010 stood at 3.73. In experiment [3], the index (1) = (PBMC + CHO-CD40L)/PBMC; PBMC-011 Donor#1 is 3.86, the index (1) = (PBMC + CHO-CD40L)/PBMC; PBMC-011 Donor#2 stood at 4.87, the index (1) = (PBMC + CHO-CD40L)/PBMC; PBMC-011 Donor#3 amounted to 2.46 and the index (1) = (PBMC + CHO-CD40L)/PBMC; PBMC-011 Donor#4 was found to be 3.41. Further, in experiment [3], the index (1) = (PBMC + CHO-CD40L)/PBMC; PBMC-014 was 3.74, the index (1) = (PBMC + CHO-CD40L)/PBMC; PBMC-015 Donor#1 is 3.94, the index (1) = (PBMC + CHO-CD40L)/PBMC; PBMC-015 Donor#2 is 3.14 and the index (1) = (PBMC + CHO-CD40L)/PBMC; PBMC-015 Donor#3 is 8. The index (1) = (PBMC + CHO-CD40L)/PBMC; PBMC-016 in experiment [3] amounted to 13.8.

For “rituximab (Rituxan; IDEC-C2B8) (antibody)”, in experiment [4], the % lysis (Ramos or Daudi; ADCC-012 Calcien AM, huNK E:T 10; 1 ug/ml) turned out to be 66%; the % lysis - % lysis IgG1 (Ramos or Daudi; ADCC-006 Alarmor Blue, huNK E:T 2; 0.01 ug/ml) worked out at 33%; the % lysis - % lysis IgG1 (Ramos or Daudi; ADCC-013 51Cr, PBMC E:T 100; 0.001 ug/ml) amounted to 0.35%. Besides, in the experiment with CD20 (human), the % lysis (ADCC-012 Calcein AM, huNK E:T 10, 1 ug/ml) was 66%; the % lysis - % lysis IgG1 (ADCC-006 Alarmor Blue, huNK E:T 2, 0.01 ug/ml) was 33%; the % lysis - % lysis IgG1 (ADCC-013 51Cr, PBMC E:T 100, 0.001 ug/ml) came to 0.35%.

As to “CD40 ligand on formaldehyde-fixed CHO transfectant cells (from UniProt P29965 1-261)”, in experiment [5], the Average Stimulation Index (SI), B cells + CHO-CD40L was determined as 145; the S. index (1) = CPM (B cells + CHO-CD40L)/CPM (B cells alone); B cell-004 Donor 1 is 7.49; the S. index (1) = CPM (B cells + CHO-CD40L)/CPM (B cells alone); B cell-004 Donor 2 was determined as 336; the S. index (1) = CPM (B cells + CHO-CD40L)/CPM (B cells alone); B cell-005 Donor 3 is 92.
